{"source": "patent US20180186873A1", "about": "(CEPHALON, published 2018)", "binders": {"B1": {"name": "3A5.040 (antibody, human IgG4 S228P, lambda)", "heavy": "not shown", "light": "SYVLTQPPSVSVAPGQTARITCGGNNIGSKNVYWYQQKPGQAPVLVVHDDSDRPSGIPERFSGSNSGNTATLTISRVEVGDEADYSCQVWDSSSDHVVFGGGTKLTVLGQPKAAPSVTLFPPSSEELQANKATLVCLISDFYPGAVTVAWKADSSPVKAGVETTTPSKQSNNKYAASSYLSLTPEQWKSHRSYSCQVTHEGSTVEKTVAPTECS"}}, "assay_in_all_cases": "SPR", "key": {"recombinant human IL-5 [1]": {"molecular_target": "T1, recombinant human IL-5 (human, UniProt P05113 20-134)"}, "recombinant human IL-5 [2]": {"molecular_target": "T1, recombinant human IL-5", "remark": "listed apart in the source"}, "recombinant human IL-5 [3]": {"molecular_target": "T1, recombinant human IL-5", "remark": "listed apart in the source"}, "recombinant human IL-5 [4]": {"molecular_target": "T1, recombinant human IL-5", "remark": "listed apart in the source"}, "recombinant human IL-5 [5]": {"molecular_target": "T1, recombinant human IL-5", "remark": "listed apart in the source"}, "recombinant human IL-5 [6]": {"molecular_target": "T1, recombinant human IL-5", "remark": "listed apart in the source"}, "recombinant human IL-5 [7]": {"molecular_target": "T1, recombinant human IL-5", "remark": "listed apart in the source"}, "recombinant human IL-5 [8]": {"molecular_target": "T1, recombinant human IL-5", "remark": "listed apart in the source"}, "recombinant human IL-5 [9]": {"molecular_target": "T1, recombinant human IL-5", "remark": "listed apart in the source"}}, "note": "Where two headings read alike, the source gives them in different places."}
{"binder": "B1", "values": [{"measurement": "Kd", "setting": "recombinant human IL-5 [1]", "result": 173, "unit": "pM"}, {"measurement": "koff", "setting": "recombinant human IL-5 [1]", "result": 0.000243, "unit": "s⁻¹"}, {"measurement": "kon", "setting": "recombinant human IL-5 [1]", "result": "1.41e+06", "unit": "M⁻¹ s⁻¹"}, {"measurement": "Kd", "setting": "recombinant human IL-5 [2]", "result": 168, "unit": "pM"}, {"measurement": "koff", "setting": "recombinant human IL-5 [2]", "result": 0.00023, "unit": "s⁻¹"}, {"measurement": "kon", "setting": "recombinant human IL-5 [2]", "result": "1.37e+06", "unit": "M⁻¹ s⁻¹"}, {"measurement": "Kd", "setting": "recombinant human IL-5 [3]", "result": 150, "unit": "pM"}, {"measurement": "koff", "setting": "recombinant human IL-5 [3]", "result": 0.000215, "unit": "s⁻¹"}, {"measurement": "kon", "setting": "recombinant human IL-5 [3]", "result": "1.43e+06", "unit": "M⁻¹ s⁻¹"}, {"measurement": "Kd", "setting": "recombinant human IL-5 [4]", "result": 200, "unit": "pM"}, {"measurement": "koff", "setting": "recombinant human IL-5 [4]", "result": 0.000284, "unit": "s⁻¹"}, {"measurement": "kon", "setting": "recombinant human IL-5 [4]", "result": "1.42e+06", "unit": "M⁻¹ s⁻¹"}, {"measurement": "Kd", "setting": "recombinant human IL-5 [5]", "result": 174, "unit": "pM"}, {"measurement": "koff", "setting": "recombinant human IL-5 [5]", "result": 0.000252, "unit": "s⁻¹"}, {"measurement": "kon", "setting": "recombinant human IL-5 [5]", "result": "1.45e+06", "unit": "M⁻¹ s⁻¹"}, {"measurement": "Kd", "setting": "recombinant human IL-5 [6]", "result": 168, "unit": "pM"}, {"measurement": "koff", "setting": "recombinant human IL-5 [6]", "result": 0.000239, "unit": "s⁻¹"}, {"measurement": "Kd", "setting": "recombinant human IL-5 [7]", "result": 193, "unit": "pM"}, {"measurement": "koff", "setting": "recombinant human IL-5 [7]", "result": 0.000285, "unit": "s⁻¹"}, {"measurement": "kon", "setting": "recombinant human IL-5 [7]", "result": "1.48e+06", "unit": "M⁻¹ s⁻¹"}, {"measurement": "Kd", "setting": "recombinant human IL-5 [8]", "result": 160, "unit": "pM"}, {"measurement": "koff", "setting": "recombinant human IL-5 [8]", "result": 0.000232, "unit": "s⁻¹"}, {"measurement": "kon", "setting": "recombinant human IL-5 [8]", "result": "1.45e+06", "unit": "M⁻¹ s⁻¹"}, {"measurement": "kon", "setting": "recombinant human IL-5 [9]", "result": "1.43e+06", "unit": "M⁻¹ s⁻¹"}]}
